# Reference: the supplement of paper PMC9170038
# Test system: MS2 coat protein
# Experiment: apparent KD of MS2 coat protein; designed switch direction (-1 OFF switch, 1 ON switch): -1; higher = weaker reporter binding
# How it was run: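 Designed RNA switches with common flanks were made on Illumina chips by stalled E. coli RNA polymerase. Titration with SNAP-549-labelled MS2 coat protein doubled from 0.7 or 1.5 nM up to 3 µM. Apparent KD is each design's median over clusters after curve-fitting normalised fluorescence.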
# [1] = input ligand: microRNA oligo, concentration not stated
# [2] = Eterna round: R95, input ligand: FMN 200 uM
# [3] = Eterna round: R95, input ligand: microRNA oligo, concentration not stated
# [4] = Eterna round: R95, input ligand: none
Sequence,apparent KD of MS2 coat protein (input ligand: FMN 200 uM),apparent KD of MS2 coat protein [1],apparent KD of MS2 coat protein (input ligand: none),apparent KD of MS2 coat protein [2],apparent KD of MS2 coat protein [3],apparent KD of MS2 coat protein [4]
"UGUCAGAUGGUAGGAUAUCCGUAUCGCGUGUCCCUUUCCUAACAUGAGGAUCACCCAUGUCGGUGGGAGAAGGGCCGUAUGGUG [salish99_ExNG02_R04_037] (Eterna round: R96, puzzle: Exclusion NG 2)",12.9 nM,10.6 nM,15.3 nM,,,
"UGUGUCCGGGAGGAUAUCAGAACGCUAGUGGUCUGAGAAGGCCUAACAUGAGGAUCACCCAUGUGAUUAUUUAU [Eternabot (L2) Solution 51] (Eterna round: R97, puzzle: Exclusion 6)",93.4 nM,,52.5 nM,,,
"UGUGUGAGACAGGAUAUGCCGGAUGAAUUGCAGGUAGAAGGGUCUACAUGAGGAUCACCCAUGUGGCCGGUUGG [Ex6 #76] (Eterna round: R97, puzzle: Exclusion 6)",19.8 nM,,13.6 nM,,,
"UGUGUGAGACAGGAUAUGCCGGUUGUAUUACUGGUAGAAGGGUCUACAUGAGGAUCACCCAUGUGGCCGGCCGG [Ex6 #82] (Eterna round: R97, puzzle: Exclusion 6)",73.1 nM,,26.2 nM,,,
UGUUGGCGAGGAUAUACAUGAGGAUCACCCAUGUGAGAGAAAAAAGUGAGGAAGAAAAGUAGAAGGCGCUGACC [salish99_ex3_r3_042] (puzzle: Exclusion 3),,,,165 nM,41 nM,55.1 nM
"UGUUGGUACGUAGGAUAUCCACCAACAGGUGGAAGGAUAUGUACGCAGAAGGUUCGCCAACAGGCGGAGAAGGACGUGGUAACU [pwkr exNG2 2xF7 2xFMN.29] (Eterna round: R96, puzzle: Exclusion NG 2)",34.6 nM,73.8 nM,169 nM,,,
"UGUUGUCGCGUAGGAUAUGAGGAUCACCCAUAUACAGGAUAUGAAAAGAAGGGUCUGAGGAUCACCCAGAAGGACGGGACAACU [pwkr exNG2 2xF5 2xFMN.28] (Eterna round: R96, puzzle: Exclusion NG 2)",1390 nM,94.9 nM,116 nM,,,
"UGUUGUCGCGUAGGAUAUGGCCAACAGGCCCUAGGAUAUGCGAAAGCAGAAGGAGCGCCAACAGGCGAGAAGGACGGGACAACU [pwkr exNG2 2xF7 2xFMN.17] (Eterna round: R96, puzzle: Exclusion NG 2)",20.6 nM,13.6 nM,359 nM,,,
"UGUUGUCGCGUAGGAUAUGGCCAACAGGCCCUAGGAUAUGGGAAACCAGAAGGAGCGCCAACAGGCGAGAAGGACGGGACAACU [pwkr exNG2 2xF7 2xFMN.19] (Eterna round: R96, puzzle: Exclusion NG 2)",734 nM,451 nM,268 nM,,,
"UGUUGUUACGCAGGAUAUCCACCAACAGGUGGAAGGAUAUGUACGCAGAAGGUUCGCCAACAGGCGGAGAAGGGCGGGUUAACA [pwkr exNG2 2xF7 2xFMN.26] (Eterna round: R96, puzzle: Exclusion NG 2)",178 nM,63.4 nM,3690 nM,,,
"UGUUGUUCAGGAUAUGGUGUGUUGUACAUGAGGAUCACCCAUGUGGGUCCUGGUUUGGCGUCAGAAGGGAAUGUUG [salish99_ex5_r4_118] (Eterna round: R97, puzzle: Exclusion 5)",482 nM,,778 nM,,,
"UUAAAACGUGUAGGAUAUGCGUGGCGAAGCUAUGCAGAAGGACAUGAGGAUCACCCAUGUUCCUGCGUCCGCGUACGGAUGCAA [JL Eng1 1.21 mod 2] (Eterna round: R96, puzzle: Exclusion NG 1)",18 nM,11.9 nM,13.1 nM,,,
"UUAAAUCAUGUAGGAUAUGCGUGGCGAAGCUAUGCAGAAGGACAUGAGGAUCACCCAUGUGCUUCCGUCUGCGUACAGAUGGUA [JL ENG1 1.13] (Eterna round: R96, puzzle: Exclusion NG 1)",315 nM,52.7 nM,62.5 nM,,,
"UUAAAUCAUGUAGGAUAUGCGUGGCGAAGCUAUGCAGAAGGACAUGAGGAUCACCCAUGUUCUAGCGUCUGAGUACAGAUGCAA [Mat - Exclusion NG 1 - Mod of JL - D2] (Eterna round: R96, puzzle: Exclusion NG 1)",244 nM,17.4 nM,18.9 nM,,,
"UUAAAUCAUGUAGGAUAUGCGUGGCGAAGCUAUGCAGAAGGACAUGAGGAUCACCCAUGUUCUAGCGUCUGCGUACAGAUGCGG [JL JSci mod] (Eterna round: R96, puzzle: Exclusion NG 1)",334 nM,22 nM,29.8 nM,,,
"UUAAAUCAUGUAGGAUAUGCUUUGCGAAGCGAGGCAGAAGGACAUGAGGAUCACCCAUGUGCUAGCGUCCGCGUACGGAUGCAA [Mat - Exclusion NG 1 - Mod of JL - D61] (Eterna round: R96, puzzle: Exclusion NG 1)",166 nM,57.3 nM,83 nM,,,
"UUAACAUGCUGGUGAUCAUACAUGAGGAUCACCCAUGUAACAAGCUUUUUGUUCGUCUUAAUUUAAUUGAUUACUAG [Stov1/8-B1] (Eterna round: R97, puzzle: Sensor, turn-off variant 1)",188 nM,,248 nM,,,

Sequence,apparent KD of MS2 coat protein (input ligand: FMN 200 uM),apparent KD of MS2 coat protein [1],apparent KD of MS2 coat protein (input ligand: none),apparent KD of MS2 coat protein [2],apparent KD of MS2 coat protein [3],apparent KD of MS2 coat protein [4]
"UUAACAUUCGUCAGGAUAUUUGCUCGGUGUACGAGAGAGAAGGGACAUGAGGAUCACCCAUGUGACUUCAGCAA [Eternabot (Original) Solution 2] (Eterna round: R97, puzzle: Brourd's mod of Exclusion 4)",19.6 nM,,15.1 nM,,,
"UUAAGGGACUGAGGAUAUACAUGAAUUAUGUUUGUAGAAGGCAGAUUGUUAGUUUAUUCACUAUACAUGAGGAUCACCCAUGUU [JR_ExcNG1_Sub019] (Eterna round: R96, puzzle: Exclusion NG 1)",,17.1 nM,,,,
"UUAAUUAAUUAACGCAGCAAGAUCACAUGAGGAUCACCCAUGUAGGAUAUCAGCUCGAUUAGAGCUGAGAAGGACAUAGCUGCG [ExNG3/1-A1] (Eterna round: R96, puzzle: Exclusion NG 3)",103 nM,18.2 nM,17.5 nM,,,
"UUACCCUGAGGAUAUCCACCGUGAUACAUGAGGAUCACCCAUGUUAAUGCCUGAGUUCCCGGAGAAGGCAGAUUCC [Megrez] (Eterna round: R97, puzzle: Exclusion 5)",35.3 nM,,33.4 nM,,,
"UUACGAUUGCUAGGAUAUCCACGAAUAGCUCCGGGAGAAGGAGCUCUCGUACAUGAGGAUCACCCAUGUCAGGGUGUCCAAUUU [Onraedin] (Eterna round: R96, puzzle: Exclusion NG 1)",38.1 nM,21.4 nM,40.7 nM,,,
"UUACUACAUGUAGGAUAUGCGUGGCGAAGCUAUGCAGAAGGACAUGAGGAUCACCCAUGUUUUAGCGUCUGCGUACAGAUGCGU [JL ENG1 1.47] (Eterna round: R96, puzzle: Exclusion NG 1)",,14.8 nM,,,,
"UUAGAUUAUUGAGGAUAUGGUUAUUUUUAUUAACCAGAAGGCAAACUCAACAUGAGGAUCACCCAUGUAUAAAGGGUAUUAGUU [JR_ExcNG1_Sub097] (Eterna round: R96, puzzle: Exclusion NG 1)",,71.9 nM,,,,
"UUAGAUUGAGGAUAUACAUGAGGAUCACCCAUGUCGAUACCAAUGGUGUUGACCGUCAGUAGAAGGCGAAUUGA [Eternabot (L1) Solution 87] (Eterna round: R97, puzzle: Exclusion 3)",163 nM,,123 nM,,,
"UUAUACAAGCAAAGAUCCCACAUGAGGAUCACCCAUGUGCUCGUCUUAUAAGGAUCUGUGACGAAAGUCACGGAUCC [Mat - Sensor, turn-off var - Eli Mod - D101] (Eterna round: R97, puzzle: Sensor, turn-off variant 1)",43.3 nM,,35.7 nM,,,
UUAUACGUUGAGGAUAUGCGAUUUAGUAUAGUUGCAGAAGGCGAUACAUGAGGAUCACCCAUGUUUAUGGGCAU [LRO-Ex6-07] (puzzle: Exclusion 6),,,,394 nM,269 nM,259 nM
UUAUACGUUGAGGAUAUGUCAGUUAGUAUAUUUACAGAAGGCGAUACAUGAGGAUCACCCAUGUUUAUGGGCAU [Ex-6 Malc#3] (puzzle: Exclusion 6),,,,,127 nM,
"UUAUAGUGAGGAUAUAUAUGCAGUAAACCUUUAAAUUUAUAACUUGAGGAUCACCCAAGUAGAAGGCGCGUUAU [JR_Ex2_Sub054] (Eterna round: R97, puzzle: Exclusion 2)",15.3 nM,,16.9 nM,,,
UUAUAUAGUGUGAGGAUAUGCUGGUCCUUGGAUCAGCAGAAGGCACAUGAGGAUCACCCAUGUAGUUAAUAAUA [Mat - Exclusion 4 - JL Mod - D16] (puzzle: Brourd's mod of Exclusion 4),,,,131 nM,30 nM,42.8 nM
UUAUAUAGUGUGAGGAUAUGCUGGUCCUUGGAUCAGCAGAAGGCACAUGAGGAUCACCCAUGUAGUUUAUUUUA [JL bmx4 3.01] (puzzle: Brourd's mod of Exclusion 4),,,,,26.8 nM,
UUAUCCGCUGAGGAUAUUAUCAGUGAGAGCUGAUGAGAAGGCGGUACAUGAGGAUCACCCAUGUCUAUGGGCAG [Ex-6 Malc#24] (puzzle: Exclusion 6),,,,472 nM,337 nM,435 nM
"UUAUGACAUGAGGAUCACCCAUGUAAGGAUAUCGAAGGAGAUGGUUACGAGGCCGCUACGAGAAGGUACGCGGG [Eternabot (L2) Solution 23] (Eterna round: R97, puzzle: Exclusion 1)",161 nM,,109 nM,,,
